Data set [1] addresses murine ALK (purified mouse ALK antigen) (Mus musculus, UniProt P97793). As to the kind of experiment: Mouse ALK cross-reactivity, solid-state ELISA. It is filed as binding. Also on record: key: − none; + weak; ++ moderate; +++ strong. Conditions: cross-reactivity with murine ALK. As to the method: Purified mAbs were evaluated for their ability to bind murine ALK by solid-state ELISA, or flow cytometry on Neuro-2a cells that express low levels of endogenous murine ALK. […]
(In general: ELISA stands for enzyme-linked immunosorbent assay.)

Data set [2] deals with C-terminal region of human ALK ECD (T637-S1038) (Homo sapiens, UniProt Q9UM73). Kind of data set: Competitive binding assay (epitope binning) by flow cytometry. The settings on record: antibodies to the C-terminal region. On the procedure:
Antibodies that bind to the C-terminal region of human ALK ECD (T637-S1038) were further characterized using a competitive binding assay. A pairwise matrix approach was used whereby each antibody was fluorescently labeled and tested for its ability to bind to ALK-expressing cells pre-incubated with an unlabeled antibody. The ability of both antibodies to bind the C-terminal domain simultaneously was tested via flow cytometry. If both antibodies bound simultaneously, they were put into different bins and considered to belong to a separate epitope class.

In data set [3] the test system is ALK (total protein levels in NB1 cells). As to the kind of experiment: ALK turnover (total protein levels) by Western blot, 24 hour treatment of NB1 cells. It is filed as cell-based, human. On the set-up: key: − none; + weak; ++ moderate; +++ strong. An excerpt: FIG. 5 depicts a Western blot of a panel of ALK antibodies.
See also Table 18, below.

For data set [4], the system named is ALK (basal phosphorylation in NB1 cells). As to the kind of experiment: Western blot of ALK phosphorylation in NB1 cells. Conditions: effect in words. It is filed as cell-based, human. As to the method:
Lysed cells were subjected to SDS-PAGE, transferred to nitrocellulose and immunoblotted with antibodies against total, and phospho-specific ALK, AKT, and MAPK. FIG. 4B depicts an ELISA of NB1 cells grown in media with reduced serum and treated with 30-100 nM of each antibody for 1-2 hours. Cell lysates were incubated on ELISA plates with an anti-ALK antibody, followed by incubation with a pan phosphotyrosine antibody coupled to HRP.
Cell lysates were subjected to SDS-PAGE and transferred to nitrocellulose. Immunoblotting was performed with antibodies against total, and phospho-specific ALK, AKT, and MAPK (purchased from Cell Signaling and utilized per manufacturer's instructions). HRP (horse radish peroxidase)-conjugated secondary antibodies (Thermo Scientific, Waltham, Mass.) were used along with Supersignal West Pico Chemiluminescent Substrate (Thermo Scientific, Waltham, Mass.) to image blots.
Anti-ALK monoclonal antibodies generated in Example 1 were evaluated via Western blotting for their ability to activate or inhibit basal levels of ALK phosphorylation in NB1 cells (FIG. 4A). A subset of ALK antibodies stimulated ALK tyrosine phosphorylation and a different subset of antibodies inhibited basal levels of ALK phosphorylation. See also Table 18, below. […] That is, ALK antibodies that stimulated ALK tyrosine phosphorylation increased MAPK and AKT phosphorylation, whereas ALK antibodies that inhibited ALK tyrosine phosphorylation decreased basal levels of MAPK and AKT phosphorylation (FIG. 4A). Similar results were obtained in ELISA-based ALK phosphorylation assays from lysates of NB1 cells treated with ALK antibodies (FIG. 4B).
In general terms: In western blotting, separated proteins are transferred to a membrane and probed.

Data set [5] has as its target human ALK (hALK, purified ALK protein) (Homo sapiens, UniProt Q9UM73). Kind of data set: Monovalent affinity of humanized antibodies, BLitz System, human ALK. It is filed as binding. Conditions: BLitz, purified ALK protein at 70 μg/mL, single binding site fit; antibody by plate position of Table 19. As to the method: The humanized ALK antibodies designed in Example 1 were tested for monovalent affinity, wherein the kinetic data are fit to a single binding site equation to obtain relative affinity values.
Kinetic measurements of the monovalent affinity of the 96 humanized ALK antibody variants (Ab351-Ab446) were collected. Affinity ranking was performed using a BLitz® System (ForteBio, Menlo Park, Calif.). Humanized anti-ALK antibodies were immobilized at 0.5 mg/mL using Protein A tips. Once baseline stability was ensured, purified ALK proteins at 70 μg/mL were added. The resulting kinetic data were fit to a single binding site equation, from which the quoted monovalent KD values were derived.
Amino acid residues that differ between rat ALK and mouse ALK are boxed. KD values for both NB1 (human) cells and Neuro2a (mouse) cells were also determined.

As a reminder, the Kd is the free concentration of one partner at which half of the binding sites on the other are occupied at equilibrium, for simple one-to-one binding.

Chain of C-terminal region of human ALK ECD (T637-S1038) (Q9UM73 19-1620): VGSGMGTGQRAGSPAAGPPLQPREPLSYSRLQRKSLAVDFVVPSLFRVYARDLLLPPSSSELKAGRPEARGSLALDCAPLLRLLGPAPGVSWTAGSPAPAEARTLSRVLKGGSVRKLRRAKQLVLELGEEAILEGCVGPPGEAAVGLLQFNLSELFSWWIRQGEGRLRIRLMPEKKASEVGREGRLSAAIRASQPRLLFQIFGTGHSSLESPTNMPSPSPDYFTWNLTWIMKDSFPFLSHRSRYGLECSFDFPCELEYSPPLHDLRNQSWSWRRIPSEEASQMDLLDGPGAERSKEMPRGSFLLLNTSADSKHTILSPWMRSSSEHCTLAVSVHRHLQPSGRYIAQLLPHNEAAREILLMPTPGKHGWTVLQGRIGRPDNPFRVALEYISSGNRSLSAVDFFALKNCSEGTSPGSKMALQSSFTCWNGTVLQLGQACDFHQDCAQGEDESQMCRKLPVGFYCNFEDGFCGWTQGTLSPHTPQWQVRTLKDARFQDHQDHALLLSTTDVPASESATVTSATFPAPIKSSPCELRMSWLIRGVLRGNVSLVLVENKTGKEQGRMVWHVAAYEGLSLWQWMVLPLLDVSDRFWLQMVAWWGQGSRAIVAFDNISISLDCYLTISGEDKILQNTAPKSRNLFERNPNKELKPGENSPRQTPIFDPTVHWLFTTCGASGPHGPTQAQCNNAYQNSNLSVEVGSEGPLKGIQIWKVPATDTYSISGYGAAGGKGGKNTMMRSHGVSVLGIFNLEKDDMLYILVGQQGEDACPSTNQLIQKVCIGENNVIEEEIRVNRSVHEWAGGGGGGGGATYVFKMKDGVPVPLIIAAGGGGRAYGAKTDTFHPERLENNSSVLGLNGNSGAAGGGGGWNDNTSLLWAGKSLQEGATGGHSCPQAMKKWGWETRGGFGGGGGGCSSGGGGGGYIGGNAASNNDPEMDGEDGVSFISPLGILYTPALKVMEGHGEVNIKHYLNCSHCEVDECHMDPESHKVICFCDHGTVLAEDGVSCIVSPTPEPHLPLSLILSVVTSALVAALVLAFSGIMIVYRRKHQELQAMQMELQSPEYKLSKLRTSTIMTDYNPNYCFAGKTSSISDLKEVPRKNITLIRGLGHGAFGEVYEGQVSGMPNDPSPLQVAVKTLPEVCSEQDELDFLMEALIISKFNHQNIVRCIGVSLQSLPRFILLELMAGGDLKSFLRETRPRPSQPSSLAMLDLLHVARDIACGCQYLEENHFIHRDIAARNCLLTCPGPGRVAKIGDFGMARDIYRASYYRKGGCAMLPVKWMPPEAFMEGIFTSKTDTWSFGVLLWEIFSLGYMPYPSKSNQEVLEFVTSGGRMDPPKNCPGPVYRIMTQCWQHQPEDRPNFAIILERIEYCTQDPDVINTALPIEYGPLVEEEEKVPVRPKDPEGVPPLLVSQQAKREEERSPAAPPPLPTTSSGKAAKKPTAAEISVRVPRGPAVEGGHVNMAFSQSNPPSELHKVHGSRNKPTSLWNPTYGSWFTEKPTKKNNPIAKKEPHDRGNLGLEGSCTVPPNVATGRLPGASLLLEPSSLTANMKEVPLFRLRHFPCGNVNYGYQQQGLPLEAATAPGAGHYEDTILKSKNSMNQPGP
Chain of murine ALK (purified mouse ALK antigen) (P97793 19-1042 limits assumed): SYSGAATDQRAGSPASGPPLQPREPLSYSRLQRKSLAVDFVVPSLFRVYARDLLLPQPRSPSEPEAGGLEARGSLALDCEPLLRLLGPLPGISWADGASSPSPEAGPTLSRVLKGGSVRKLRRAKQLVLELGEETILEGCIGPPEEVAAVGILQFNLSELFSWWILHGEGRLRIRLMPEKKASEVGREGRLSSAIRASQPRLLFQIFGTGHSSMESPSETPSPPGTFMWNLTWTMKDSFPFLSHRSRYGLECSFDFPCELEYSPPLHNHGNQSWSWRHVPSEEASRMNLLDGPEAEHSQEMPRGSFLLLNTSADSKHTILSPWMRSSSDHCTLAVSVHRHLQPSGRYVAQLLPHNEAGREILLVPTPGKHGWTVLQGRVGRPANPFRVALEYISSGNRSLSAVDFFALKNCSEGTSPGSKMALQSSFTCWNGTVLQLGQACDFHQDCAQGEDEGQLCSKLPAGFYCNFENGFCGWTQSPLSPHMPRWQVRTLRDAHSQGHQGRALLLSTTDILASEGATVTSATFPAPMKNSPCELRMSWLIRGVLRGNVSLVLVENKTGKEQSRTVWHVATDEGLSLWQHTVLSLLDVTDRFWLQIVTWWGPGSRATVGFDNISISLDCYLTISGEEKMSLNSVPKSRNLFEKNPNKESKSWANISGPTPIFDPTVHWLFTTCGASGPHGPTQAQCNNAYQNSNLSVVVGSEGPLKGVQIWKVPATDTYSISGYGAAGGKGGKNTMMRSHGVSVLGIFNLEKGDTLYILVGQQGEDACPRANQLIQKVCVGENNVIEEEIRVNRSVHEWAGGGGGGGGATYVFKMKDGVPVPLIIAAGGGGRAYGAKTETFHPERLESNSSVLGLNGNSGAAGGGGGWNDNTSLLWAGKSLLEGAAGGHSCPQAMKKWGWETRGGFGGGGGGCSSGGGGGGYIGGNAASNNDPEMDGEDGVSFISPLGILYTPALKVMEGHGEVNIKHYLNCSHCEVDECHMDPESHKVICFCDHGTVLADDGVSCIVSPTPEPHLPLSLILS
Chain of human ALK (hALK, purified ALK protein) (Q9UM73 with tags, fused parts or gaps): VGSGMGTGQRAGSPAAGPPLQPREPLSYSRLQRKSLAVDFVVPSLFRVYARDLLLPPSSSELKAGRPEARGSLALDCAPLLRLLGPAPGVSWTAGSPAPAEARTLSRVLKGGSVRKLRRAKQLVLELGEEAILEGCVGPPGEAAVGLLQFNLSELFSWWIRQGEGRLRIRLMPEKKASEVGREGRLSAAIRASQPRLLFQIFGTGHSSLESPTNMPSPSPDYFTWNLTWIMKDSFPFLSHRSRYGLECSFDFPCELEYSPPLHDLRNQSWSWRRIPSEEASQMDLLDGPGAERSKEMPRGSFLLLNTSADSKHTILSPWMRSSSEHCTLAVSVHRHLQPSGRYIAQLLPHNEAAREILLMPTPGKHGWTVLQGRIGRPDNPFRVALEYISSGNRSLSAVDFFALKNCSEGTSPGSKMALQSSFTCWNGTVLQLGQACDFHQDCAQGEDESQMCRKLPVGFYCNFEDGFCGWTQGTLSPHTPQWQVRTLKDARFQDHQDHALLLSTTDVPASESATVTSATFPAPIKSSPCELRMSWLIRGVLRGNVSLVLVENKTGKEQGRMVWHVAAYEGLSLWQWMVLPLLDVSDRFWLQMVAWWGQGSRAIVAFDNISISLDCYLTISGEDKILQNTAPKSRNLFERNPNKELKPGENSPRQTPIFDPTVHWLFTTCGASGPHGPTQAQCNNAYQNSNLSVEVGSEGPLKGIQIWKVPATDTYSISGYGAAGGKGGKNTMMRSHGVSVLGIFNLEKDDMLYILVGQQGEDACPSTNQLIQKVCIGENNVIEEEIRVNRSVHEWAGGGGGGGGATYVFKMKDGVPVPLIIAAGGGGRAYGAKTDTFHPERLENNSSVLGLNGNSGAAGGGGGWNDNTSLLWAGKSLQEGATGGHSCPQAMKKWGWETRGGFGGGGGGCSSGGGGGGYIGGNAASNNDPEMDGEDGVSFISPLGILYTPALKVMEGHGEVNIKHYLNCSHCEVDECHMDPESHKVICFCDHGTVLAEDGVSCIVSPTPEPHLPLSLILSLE

B1: Ab325: anti-ALK monoclonal antibody; VL SEQ ID NO: 405, VH SEQ ID NO: 406 (antibody, V domains shown)
VH: QVQLQQSGAELVKPGASVKISCKASGYAFSSYWMNWVKQRPGKGLEWIGQIYPGDGDTNYNGKFKGKATLTADKSSSTAYMQLSSLTSEDSAVYFCARWYYGSYYAMDYWGQGTSVTVSS
VL: DIQMTQTTSSLSASLGDRVTISCRASQDISNYLNWYQQKPDGTVKLLIYYTSRLHSGVPSRFSGSGSGTDYSLTISNLEQEDIATYFCQQGNTLPRTFGGGTKLEIKR
modifications: VH domain - Ab325; VL domain - Ab325
Turning to B1, the “mouse ALK binding” value in data set [1] is on record as “+”. For the same molecule, in data set [2], the “Bin/Domain (bin)” value came to 1. Also, the ALK turnover entry in data set [3] is “++”.

B2: Ab322: anti-ALK monoclonal antibody; VL SEQ ID NO: 399, VH SEQ ID NO: 400 (antibody, V domains shown)
VH: QVQLQQSGAELAKPGASVKLSCKASGYTFTNYWMHWVKQRPGQGLEWIGYINPSSGYTKYNQKFKDKATLTADKSSSTAYMQLSSLTYEDSAVYYCARDYYGSSSWFAYWGQGTLVTVSA
VL: DIVMTQSQRFMSTSVGDRVSVTCKASQNVGTNVAWYQQKPGQSPKALIYSASYRYSGVPDRFTGSGSGTDFTLTVSNVQSEDLAEYFCQQYNSYPYMYTFGGGTKLEIKR
modifications: VH domain - Ab322; VL domain - Ab322
Turning to B2, the “mouse ALK binding” value in data set [1] is given as “−”. Further, the “Bin/Domain (bin)” value in data set [2] worked out at 2. For the same molecule, the ALK phosphorylation result in data set [4] is “inhibitor”. Also, the ALK turnover result in data set [3] was “−”.

B3: Ab328: anti-ALK monoclonal antibody; VL SEQ ID NO: 411, VH SEQ ID NO: 412 (antibody, V domains shown)
VH: QVQLQQSGAELAKPGASVKLSCKASGYTFTSYWMHWVKQRPGQGLEWIGYINPSSGYTKYNQKFKDKATLTADKSSSTAYMQLSSLTFEDSAVYYCARDYYGSSSWFAYWGQGTLVTVSA
VL: DIVMTQSQKFMSTSVGDRVSVTCKASQNVGTNVAWYQQKPGHSPKALIYSASYRYSGVPDRFTGSGSGTDFTLTISNVQSEDLAEYFCQRYNSYPYMFTFGGGTKLEIKR
modifications: VH domain - Ab328; VL domain - Ab328
On to B3, for which the “mouse ALK binding” value in data set [1] is “+++”. Moreover, in data set [2], the “Bin/Domain (bin)” value is listed as 2. In addition, the ALK phosphorylation result in data set [4] is “weak agonist”. The ALK turnover entry in data set [3] is reported as “+++”.

B4: Ab320: anti-ALK monoclonal antibody; VL SEQ ID NO: 395, VH SEQ ID NO: 396 (antibody, V domains shown)
VH: QVQLQQSGAELVKPGASVKISCKASGYAFSSYWMNWVKQRPGKGLEWIGQIYPGDGDTNYNGKFKGKATLTADKSSSTAYMQLSSLTSEDSAVYFCASYYYGSKAYWGQGTLVTVSA
VL: DIQMTQSPASLAASVGETVTITCRASENIYYSLAWYQQKQGKSPQLLIYNANSLEDGVPSRFSGSGSGTQYSMKINSMQPEDTATYFCKQAYDVPFTFGSGTKLEIKR
modifications: VH domain - Ab320; VL domain - Ab320
Turning to B4, the “mouse ALK binding” value in data set [1] is “++”. For the same molecule, the “Bin/Domain (bin)” value in data set [2] was found to be 1. For the same molecule, the ALK phosphorylation result in data set [4] is “no effect”. In addition, the ALK turnover entry in data set [3] is listed as “−”.

B5: Ab330: anti-ALK monoclonal antibody; VL SEQ ID NO: 415, VH SEQ ID NO: 416 (antibody, V domains shown)
VH: EVQVVETGGGVVQPGKSLEITCATSGLTFSTAWMYWVRQSSDRRLEWIARIKDKSNKFASDYVESVRGRFTISRDDSRSSVYLQMNNLKEEDTATYYCTTSYGYAWGQGVMVTVSS
VL: DIQMTQSPSSMSASLGDRVTITCQASQDIGNYLIWFQQKPGKSPRPLIYYATNLANGVPSRFSGSRSGSEYSLTITSLESEDMADYHCLQYKQHLTFGSGTKLEIER
modifications: VH domain - Ab330; VL domain - Ab330
For B5, the “mouse ALK binding” value in data set [1] was “+”. For the same molecule, the ALK phosphorylation entry in data set [4] is “inhibitor”.

B6: Ab331: anti-ALK monoclonal antibody; VL SEQ ID NO: 417, VH SEQ ID NO: 418 (antibody, V domains shown)
VH: EVQVVETGGGVVQPGKSLEITCATSGLTFSTAWMYWVRQSSDRRLEWIARIKDKSNNFASDYVESVRGRFTISRDDSRSSVYLQMNNLKEEDTATYYCTTSYGYAWGQGVMVTVSS
VL: DIQMTQSPSSMSASLGDRITITCQASQDIGNYLIWFQQKPGKSPRPLIYYATNLANGVPSRFSGSRSGSEYSLTITSLESEDMADYHCLQYKQHLTFGSGTKLEIER
modifications: VH domain - Ab331; VL domain - Ab331
For the molecule B6, the “mouse ALK binding” value in data set [1] is “−”. Moreover, in data set [4], the ALK phosphorylation result is “inhibitor”.

B7: Ab329: anti-ALK monoclonal antibody; VL SEQ ID NO: 413, VH SEQ ID NO: 414 (antibody, V domains shown)
VH: QVQLKESGPGLVKPSATLSLTCTVSGFSLTSYHVCWIRQTPGKGLEWMGVIWGDGRTTYNPPLKSRLSISRDTSKSQVFLKMSSLKTEDTATYYCARATMTGHGDAWGQGASVTVSS
VL: DIQMTQSPASLSASLEEIVTITCQASQDIDNYLSWYQQKPGKSPHLLIHSATSLADGVPSRFSGGRSGTQFSLKINRLQVEDTGIYYCLQHYSGWTFGGGTKLELKR
modifications: VH domain - Ab329; VL domain - Ab329
On to B7, for which the “mouse ALK binding” value in data set [1] is given as “+++”. In data set [4], the ALK phosphorylation result was “weak agonist”.

B8: Ab332: anti-ALK monoclonal antibody; VL SEQ ID NO: 419, VH SEQ ID NO: 420 (antibody, V domains shown)
VH: EVQLQQSGPELVKPGTSVKISCKASGYTFTDYYMNWMKQSHGKSLEWIGDINPNNGVTSYNQKFKGKATLTVDKSSSTAYMELRSLTSEDSAVYYCAREDYGSNYFDYWGQGTTLTVSS
VL: DIVLTQSPASLAVSLGQRATISCKASQSVDYDGDSYMNWYQQKPGQPPKLLIYAASNLESGIPARLSGSGSGTDFTLNIHPVEEEDAATYYCQQSNEDPPTFGGGTKLEIRR
modifications: VH domain - Ab332; VL domain - Ab332
For the molecule B8, the “mouse ALK binding” value in data set [1] is “+”. The ALK phosphorylation entry in data set [4] was “weak agonist”.

B9: Ab437: humanized anti-ALK antibody; VL SEQ ID NO: 428, VH SEQ ID NO: 431 (antibody, V domains shown)
VH: EVQLVQSGAEVKKPGTSVKLSCKASGYTFTSSAMQWVKQAPGQGLEWIGYIKPSSGYTKYNQKFKDKATLTADKSTSTAYMELSSLRSEDTAVYYCARDYYGSSSWFAYWGQGTLVTVSS
VL: EIVMTQSQATMSTSVGERATLSCKASQNVGTNVAWYQQKPGQSPKALIYGASTRATGVPARFSGSGSGTDFTLTISSVEPEDFAVYYCQQYNSYPYMYTFGQGTKLEIK
modifications: VH domain - Ab353; VL domain - Ab435
Turning to B9, the Kd in data set [5] is 6.08 mM.

The record behind these values is patent US11091559B2, “Anti-ALK antibodies and methods for use thereof” (Celldex Therapeutics, Inc., priority 2015, dated 2021).
